Square brackets hold non-standard residues; d marks the D form. Ends that are not written are not given here. Peptide text beside a SMILES is read from it. Lumio green = fluorophore conjugated via N-terminal linker CCPGCCGGGG; Rhodamine‑110 = fluorophore on the N-terminus; pT = C[C@@H](OP(=O)(O)O)[C@H](N)C(=O)O
What was measured:
[1] = test system: WNK3 protein levels in HEK293 cells co-transfected with KLHL3-FLAG; assay: KLHL3-mediated degradation of WNK3 on co-transfection, immunoblotting for WNK3 protein levels; assay type: cell-based; conditions: WNK3-HA wild type or mutant with increasing KLHL3-FLAG, 48 h post transfection, immunoblot, three independent experiments, mean ± SEM
Protocol: Figure 3. T541E substitution in WNK3 affects its KLHL3-targeted degradation in HEK293 cells. (A) WNK3-HA protein levels were investigated in HEK293 cells transfected with either wild type or mutant constructs and increasing concentrations of KLHL3-FLAG. A representative blot is presented. (B) Quantitative results of three independent experiments. Data are mean ± SEM. * P < 0.01, ** P < 0.0005.
HEK293 cells (ATCC® CRL-1573) were grown in Dulbecco's modified Eagle's medium (DMEM) supplemented with 10% fetal bovine serum to 70–80% confluence and transfected using Lipofectamine 2000 (Life Technologies, Inc.) with wild type or mutant WNK3-HA [46] and with different concentrations of KLHL3-FLAG [42]. Forty-eight hours post transfection, cells were lysed and protein concentration was quantified by the BCA protein assay (Pierce). Samples were diluted in Laemmli buffer and subjected to SDS–PAGE. Proteins were transferred to PVDF membranes which were then blocked for 1 h in 10% (w/v) non-fat milk dissolved in TBS- Tween 20 0.1% (TBSt). Antibodies were diluted in 5% (w/v) non-fat milk-TBSt. Incubation with HRP-coupled primary antibodies was performed overnight. Immunoblots were developed using radiographic film.
Lysis buffer: 50 mM Tris–HCl (pH 7.5), 1 mM EGTA, 1 mM EDTA, 50 mM sodium fluoride, 5 mM sodium pyrophosphate, 1 mM sodium orthovanadate, 1% (w/v) IGEPAL CA-630, 270 mM sucrose, 0.1% (v/v) 2-mercaptoethanol, and protease inhibitors (Complete tablets (Roche Applied Science).

[2] = biological target: T1, KLHL3 Kelch domain (GST-KLHL3, a.a. 298–587) (Homo sapiens, UniProt Q9UH77); assay: Fluorescence polarisation assay for the binding of WNK3 variants; conditions: 25°C; for Kd: GST-KLHL3 a.a. 298–587, 50 mM Tris–HCl pH 7.5, 150 mM NaCl, 2 mM DTT, one site specific binding with Hill slope, three technical replicates per point
T1 construct: using KLHL3 Kelch domain (GST-KLHL3, a.a. 298–587, MRC-PPU plasmid DU44387); host or cells: E. coli BL21
T1 sequence (Q9UH77 298-587): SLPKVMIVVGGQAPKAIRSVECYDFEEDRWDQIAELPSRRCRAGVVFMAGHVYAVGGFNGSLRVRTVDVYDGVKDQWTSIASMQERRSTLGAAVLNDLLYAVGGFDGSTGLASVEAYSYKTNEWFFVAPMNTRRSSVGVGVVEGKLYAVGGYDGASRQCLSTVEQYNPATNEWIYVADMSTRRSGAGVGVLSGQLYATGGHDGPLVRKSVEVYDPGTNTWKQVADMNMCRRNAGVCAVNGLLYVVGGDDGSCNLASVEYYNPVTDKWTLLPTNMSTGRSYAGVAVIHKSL
Protocol: Figure 2. Analysis of the interaction between KLHL3 and WNK3 variants by fluorescence polarisation. Purified GST-KLHL3 a.a. 298–587 was diluted appropriately and mixed at a 1 : 1 volume ratio with 20 nM Lumino-Green-labelled WNK3 peptides to the concentration stated in the Figure, with the peptide concentration consistent at 10 nM. Fluorescence polarisation measurements were recorded and corrected to the fluorescent probe alone. Each data point represents three technical replicates. One site-specific binding with hill slope was assumed and the disassociation constant was obtained. Binding curves, assuming one-site-specific binding, were then generated with Prism6 using milli-polarization (mP) units. TEXT PRINTED IN THE PICTURE: WNK3 [a.a.537-547] […] E541: KD > 50 μM | WNK3 [a.a.537-547] pT541: KD > 50 μM
For fluorescence polarisation measurements of WNK3 variants, the Kelch domain of human KLHL3 (a.a. […]) was cloned into the bacterial expression vector pGEX6P-1 (MRC-PPU plasmid DU44387) and expressed as a GST fusion protein as previously described. Briefly, E. coli BL21 cells were transformed with plasmid DNA and grown at 37°C in LB broth containing 100 µg/ml ampicillin until OD600 reached 0.6. Cells were then cultured at 16°C for a further 16 h in the presence of 50 µM IPTG for protein induction. Harvested cells were lysed by sonication and the lysate clarified by centrifugation. GST fusion protein was affinity purified using 0.5 ml glutathione–sepharose beads and eluted in buffer (50 mM Tris–HCl pH 7.5, 150 mM NaCl, 2 mM DTT) containing 20 mM glutathione.
Fluorescence polarisation measurements were performed at 25°C using KLHL3 Kelch domain (GST-KLHL3, a.a. 298–587, MRC-PPU plasmid DU44387) buffered in 50 mM Tris–HCl pH 7.5, 150 mM NaCl, 2 mM DTT. All peptides (ECEETEVDQHV, WNK3 a.a. 537–547), (ECEET(P)EVDQHV, WNK3 a.a. 537–547, Thr541 is phosphorylated), and (ECEEEEVDQHV, WNK3 a.a. 537–547, Thr541 is mutated to Glu) were conjugated to the Lumio green fluorophore via an N-terminal linker (CCPGCCGGGG) and dialysed into assay buffer before use. Samples were prepared with 10 nM Lumio-green labelled peptide and the indicated concentration of protein in a final volume of 30 µl. Fluorescence polarisation measurements were recorded using a BMG PheraStar plate reader, with an excitation wavelength of 485 nm and an emission wavelength of 538 nm, and measurements were corrected to the fluorescent probe alone. Data analysis and graphing were performed in GraphPad Prism6. One Site Specific binding with Hill Slope was assumed (model Y = Bmax × X^h/KD^h + X^h) and the disassociation constant, and associated standard error was obtained.

[3] = biological target: Lumio green-labelled WNK3 degron peptide (…, WNK3 a.a. 537–547) (human); assay: fluorescence polarisation; 10 nM Lumio green-labelled WNK3 peptide titrated with GST-KLHL3 Kelch domain; 25°C; 50 mM Tris–HCl pH 7.5, 150 mM NaCl, 2 mM DTT; one site specific binding with Hill slope
[4] = biological target: Lumio green-labelled phospho-WNK3 peptide (ECEET(P)EVDQHV, WNK3 a.a. 537–547, Thr541 phosphorylated) (human); assay: as above
[5] = biological target: T2, KLHL3 Kelch domain (a.a. 298–587) (human, UniProt Q9UH77-1 298-587); assay: FP; 4.7 mM Cl-
T2 chain: T1 sequence (Q9UH77 298-587)

[6] = biological target: T2, KLHL3 Kelch domain (a.a. 298–587); assay: FP; 18 mM Cl-
[7] = biological target: T2, KLHL3 Kelch domain (a.a. 298–587); assay: FP; 9.5 mM Cl-
[8] = biological target: T2, KLHL3 Kelch domain (a.a. 298–587); assay: FP; 2.4 mM Cl-
[9] = biological target: T2, KLHL3 Kelch domain (a.a. 298–587); assay: FP; 75 mM Cl-
[10] = biological target: T2, KLHL3 Kelch domain (a.a. 298–587); assay: FP; 0 mM Cl-
[11] = biological target: T2, KLHL3 Kelch domain (a.a. 298–587); assay: FP; 150 mM F-
[12] = biological target: T2, KLHL3 Kelch domain (a.a. 298–587); assay: FP; 150 mM Cl-
[13] = biological target: T2, KLHL3 Kelch domain (a.a. 298–587); assay: FP; 37 mM Cl-
[14] = biological target: T3, GST-KLHL3 Kelch domain (a.a. 298–587) (human, UniProt Q9UH77 298-587); assay: FP
T3 chain: T1 sequence (Q9UH77 298-587)

[15] = biological target: T4, KLHL3 Kelch domain (a.a. 298–587) (human, UniProt Q9UH77-1 298-587); assay: fluorescence polarisation; 10 nM Rhodamine-110 labelled peptide with KLHL3 (a.a. 298–587) from 0 to 3200 or 6400 nM; 25°C; test of the effect of chloride concentration; one site total fit; conditions: both partners purified
T4 construct: Kelch-like protein 3 (KLHL3), human, Kelch domain, a.a; 298–587; Vector pNIC28-Bsa4; the hexahistidine tag was cleaved with TEV protease; It is not clear whether Addgene #110251 names the vector or the construct; also called KLHL3 (a.a. 298–587); source: E. coli BL21(DE3)-pRARE, purified (nickel-sepharose, SEC, TEV cleavage); not shown: His6, N-terminal, cleaved
T4 sequence (looked up): T1 sequence (Q9UH77 298-587)

[16] = 10 nM Lumio-green labelled peptide (N-terminal linker CCPGCCGGGG), 30 µl, ex 485/em 538 nm, repeated at least twice

Molecule: T541A: WNK3-HA mutant T541A transfected in HEK293 cells
- WNK3 levels / KLHL3-mediated degradation (in words) [1]: reduced KLHL3-mediated degradation of WNK3

Molecule: ECEEEEVDQHV [WNK3 [a.a.537-547] E541]
- Kd ([2]; printed in Figure 2 picture, 10 nM Lumio-green labelled peptide): > 50000 nM

Molecule: CC(C)[C@H](NC(=O)[C@H](Cc1c[nH]cn1)NC(=O)[C@H](CCC(N)=O)NC(=O)[C@H](CC(=O)O)NC(=O)[C@@H](NC(=O)[C@H](CCC(=O)O)NC(=O)[C@@H](NC(=O)[C@H](CCC(=O)O)NC(=O)[C@H](CCC(=O)O)NC(=O)[C@H](CS)NC(=O)[C@@H](N)CCC(=O)O)[C@@H](C)OP(=O)(O)O)C(C)C)C(=O)O [WNK3 [a.a.537-547] pT541] (H-ECEE[pT]EVDQHV-OH; N-terminus and C-terminus assumed)
- Kd [2, 16]: > 50000 nM
- KLHL3 interaction (in words) ([2]; fluorescence polarisation, GST-KLHL3 a.a. 298–587, 10 nM Lumio-green labelled peptide, pH 7.5): too severely destabilised to measure a dissociation constant

Molecule: WNK3: wild type WNK3-HA transfected in HEK293 cells
- WNK3 levels / KLHL3-mediated degradation (in words) [1]: significantly lower than in the absence of KLHL3, even at the lowest amounts of KLHL3 DNA used for transfection

Molecule: ECEETEVDQHV [WNK3 [a.a.537-547] WT]
- Kd [2, 16]: 670 nM

Molecule: WNK3 T541E: WNK3-HA mutant T541E transfected in HEK293 cells
- WNK3 levels / KLHL3-mediated degradation (in words) [1]: noticeably resistant to degradation

Molecule: GST-KLHL3 Kelch domain (a.a. 298–587) (from UniProt Q9UH77 298-587) (domain or fragment)
- Kd [3]: 670 nM
- Kd [4]: > 50000 nM

B1: Rhodamine-110 labelled WNK3 degron peptide (ECEETEVDQHV) (peptide)
peptide: {Rhodamine‑110}-ECEETEVDQHV
- Kd [5]: 1700 nM
- Kd [6]: 1400 nM
- Kd [7]: 1300 nM
- Kd [8]: 1200 nM
- Kd [9]: 1300 nM
- Kd [10]: 1700 nM
- Kd [11]: 1100 nM
- Kd [12]: 1300 nM
- Kd [13]: 1500 nM

B2: Lumio green-labelled WNK3 T541E peptide (ECEEEEVDQHV, WNK3 a.a. 537–547, Thr541 mutated to Glu) (peptide)
peptide: {Lumio green}-CCPGCCGGGGECEEEEVDQHV
modifications: cysteine pairing not given here
- Kd [14]: > 50000 nM

B3: Rhodamine-110 labelled WNK4 degron peptide (EPEEPEADQHQ) (peptide)
peptide: {Rhodamine‑110}-EPEEPEADQHQ
notes: WNK4 acidic degron motif, residues 557–567; also called 11-residue degron from WNK4; source: synthetic peptide (Fmoc solid phase, purified by HPLC)
- Kd [5]: 600 nM
- Kd [6]: 600 nM
- Kd [7]: 600 nM
- Kd [8]: 600 nM
- binding result [15]: binds
- Kd [9]: 600 nM
- Kd [10]: 700 nM
- Kd [11]: 300 nM
- Kd [12]: 700 nM
- Kd [13]: 600 nM
